Test in all cases: cell-based or functional assay
Assay [1] deals with human GLP-1 receptor (human, UniProt P43220 24-463).
Assay [2] addresses human GCG receptor (human, UniProt P47871 26-477).
The target of assay [3] is T1, human GIP receptor (human, UniProt P48546 22-466).
T1 sequence (looked up): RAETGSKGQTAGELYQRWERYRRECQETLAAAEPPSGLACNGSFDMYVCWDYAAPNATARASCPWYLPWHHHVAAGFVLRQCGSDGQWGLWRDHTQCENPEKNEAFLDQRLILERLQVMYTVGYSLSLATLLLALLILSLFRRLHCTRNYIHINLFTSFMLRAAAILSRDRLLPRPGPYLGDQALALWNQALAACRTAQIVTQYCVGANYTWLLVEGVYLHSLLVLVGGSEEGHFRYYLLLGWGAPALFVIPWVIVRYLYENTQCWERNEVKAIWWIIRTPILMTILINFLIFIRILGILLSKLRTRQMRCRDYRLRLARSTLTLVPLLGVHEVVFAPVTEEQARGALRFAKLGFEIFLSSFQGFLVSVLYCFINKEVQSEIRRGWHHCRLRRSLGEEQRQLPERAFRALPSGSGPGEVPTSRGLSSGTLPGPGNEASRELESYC

Bridge positions count the residues as written; N and C are the ends. Square brackets hold non-standard residues; d marks the D form. Ends that are not written are not given here. Aib = CC(C)(N)C(=O)O

human GCG receptor, sequence (P47871 26-477): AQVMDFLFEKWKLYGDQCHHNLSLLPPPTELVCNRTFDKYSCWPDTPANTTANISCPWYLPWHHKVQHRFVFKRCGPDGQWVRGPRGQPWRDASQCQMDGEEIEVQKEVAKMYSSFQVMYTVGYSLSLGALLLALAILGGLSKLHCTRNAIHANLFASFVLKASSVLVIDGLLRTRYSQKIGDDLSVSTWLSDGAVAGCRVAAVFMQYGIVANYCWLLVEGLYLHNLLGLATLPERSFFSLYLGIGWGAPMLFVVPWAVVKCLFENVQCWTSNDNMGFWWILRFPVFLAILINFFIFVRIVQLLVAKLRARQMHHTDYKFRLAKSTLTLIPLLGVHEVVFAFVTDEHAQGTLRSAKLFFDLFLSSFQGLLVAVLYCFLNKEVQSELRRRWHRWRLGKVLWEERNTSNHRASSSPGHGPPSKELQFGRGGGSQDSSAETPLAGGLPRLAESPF

B1: triple agonist of SEQ ID NO: 31 (peptide)
peptide: H[Aib]QGTFTSDYSKYLDEKACKEFVQWLLAQ
modifications: bridge 16-20
Consider B1, for which the “In vitro activity compared to native-type peptide (%), vs GLP-1” value (shortened to “In vitro activity … (%), vs GLP-1”) in assay [1] stood at 135%. The “In vitro activity compared to native-type peptide (%), vs Glucagon” value (shortened to “In vitro activity … (%), vs Glucagon”) in assay [2] amounted to 2.2%. Also, the “In vitro activity compared to native-type peptide (%), vs GIP” value (from here on “In vitro activity … (%), vs GIP”) in assay [3] was 2.4%.

B2: triple agonist of SEQ ID NO: 32 (peptide)
peptide: H[Aib]QGTFTSDYSKYLDEKACKDFVQWLLDGGPSSGAPPPS
modifications: bridge 16-20
Regarding B2, the “In vitro activity … (%), vs GLP-1” value in assay [1] is 151%. Besides, the “In vitro activity … (%), vs Glucagon” value in assay [2] was 1.7%. Besides, in assay [3], the “In vitro activity … (%), vs GIP” value was determined as 8.8%.

B3: triple agonist of SEQ ID NO: 33 (peptide)
peptide: H[Aib]QGTFTSDYSIAMDEIHQKDFVNWLLAQKC
modifications: bridge 16-20
Turning to B3, the “In vitro activity … (%), vs GLP-1” value in assay [1] was 24.5%. The “In vitro activity … (%), vs Glucagon” value in assay [2] was less than 0.1%. The “In vitro activity … (%), vs GIP” value in assay [3] amounted to 10.4%.

These data come from US20230381333A1 (HANMI PHARM, published 2023).
